Data: patent EP3349768A1

Target: T1, Cathepsin G (CTSG) from mouse bone marrow cell lysates (mouse) (UniProt P28293)
T1 sequence (looked up): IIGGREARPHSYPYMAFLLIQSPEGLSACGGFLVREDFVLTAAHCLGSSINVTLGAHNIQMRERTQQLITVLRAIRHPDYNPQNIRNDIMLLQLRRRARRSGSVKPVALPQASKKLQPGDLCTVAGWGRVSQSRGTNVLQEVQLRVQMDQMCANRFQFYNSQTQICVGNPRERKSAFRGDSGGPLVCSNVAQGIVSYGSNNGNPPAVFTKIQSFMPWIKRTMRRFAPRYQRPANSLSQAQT
Assay: cell-based or functional assay

B1: LKAb antibody (anti-Cathepsin G scFv, purified as scFv-Fc fusion protein) (Fc fusion, part only; not given: Fc tag, part only)
scFv, part: MAQVQLVQSGAEVKKPGASVKVSCKASGYTFTSYYMHWVRQAPGQGLEWMGGIIPIFGTGNYAQKFQGRVTITADESTSTAYMELSSLRSEDTAVYYCAREEEQQFSLDYWGQGTLVTVSSGGGGGLSNFMLTQPHSVSESPGKTVTISCTRSSGSIASNSVHWYQQRPGSAPTTVISENNQRPSGVPDRFSGSIDSSSNSASLTISGLKTEDEADYYCQSYDSNFHWVFGGGTQLTVLG
Q: For B1, which decrease in CTSG enzymatic activity (cleavage of a specific substrate, release of pNA) is on record?
A: 50%
